# Biological target: T1, recombinant human TNFalpha (human, UniProt P01375 77-233)
# T1 construct: Used at 1000 pg/ml (L929 assay) or 10 pg/ml (Kym-1 assay); also called hTNF; TNFα
# Experiment: secretion ELISA on TNFα, bacterial culture supernatant not normalised for single-chain antibody content
# T1 sequence (P01375 77-233 limits assumed): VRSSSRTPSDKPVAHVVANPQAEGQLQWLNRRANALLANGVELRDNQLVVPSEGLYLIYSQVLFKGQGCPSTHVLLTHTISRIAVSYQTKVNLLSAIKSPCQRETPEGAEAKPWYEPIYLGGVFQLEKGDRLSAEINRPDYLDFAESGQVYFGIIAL
binder,measurement,value
"34min (scFv, also called EP34min; EP34_min) scFv (VL-linker-VH): EIVMTQSPSTLSASVGDRVIITCQSSQSVYGNIWMAWYQQKPGKAPKLLIYQASKLASGVPSRFSGSGSGAEFTLTISSLQPDDFATYYCQGNFNTGDRYAFGQGTKLTVLGGGGGSGGGGSGGGGSGGGGSEVQLVESGGGLVQPGGSLRLSCAASGFTISRSYWICWVRQAPGKGLEWVSCIYGDNDITPLYANWAKGRFTISRDNSKNTLYLQMNSLRAEDTAVYYCAKLGYADYAYDLWGQGTLVTVSS",binding result,binds

# Reference: US20140193400A1 (ESBATECH AN ALCON BIOMEDICAL RESEARCH UNIT, published 2014)
